Assay results from patent US20220306695A1, “COMPSTATIN ANALOGUES AND THEIR MEDICAL USES” (priority 2019, published 2022).
Read-outs that look alike come from different tables or passages of the source. Starred links: 1 amine or outer side, 2 acyl side, 3 side chain; linkers in the order of their positions; H or OH if unused. Positions of bridges follow the written chain, without caps; N, C: chain ends. Non-standard residues stand in square brackets, D forms with d. Groups on a side chain read outwards from the residue. *: point of attachment. Trp(1-Me) = Cn1cc(C[C@H](N)C(=O)O)c2ccccc21; C16 diacid = O=C(O)CCCCCCCCCCCCCCC(=O)*; γGlu = O=C(O)[C@H](CCC(=O)[*:2])N[*:1]; AEEA = NCCOCCOCC(=O)O; Sar = CNCC(=O)O

Experiments:
Human C3 [1] = molecular target: T1, Human C3 (human, UniProt P01024 23-1663); test: cell-based or functional assay
T1 sequence (P01024 23-1663 limits assumed): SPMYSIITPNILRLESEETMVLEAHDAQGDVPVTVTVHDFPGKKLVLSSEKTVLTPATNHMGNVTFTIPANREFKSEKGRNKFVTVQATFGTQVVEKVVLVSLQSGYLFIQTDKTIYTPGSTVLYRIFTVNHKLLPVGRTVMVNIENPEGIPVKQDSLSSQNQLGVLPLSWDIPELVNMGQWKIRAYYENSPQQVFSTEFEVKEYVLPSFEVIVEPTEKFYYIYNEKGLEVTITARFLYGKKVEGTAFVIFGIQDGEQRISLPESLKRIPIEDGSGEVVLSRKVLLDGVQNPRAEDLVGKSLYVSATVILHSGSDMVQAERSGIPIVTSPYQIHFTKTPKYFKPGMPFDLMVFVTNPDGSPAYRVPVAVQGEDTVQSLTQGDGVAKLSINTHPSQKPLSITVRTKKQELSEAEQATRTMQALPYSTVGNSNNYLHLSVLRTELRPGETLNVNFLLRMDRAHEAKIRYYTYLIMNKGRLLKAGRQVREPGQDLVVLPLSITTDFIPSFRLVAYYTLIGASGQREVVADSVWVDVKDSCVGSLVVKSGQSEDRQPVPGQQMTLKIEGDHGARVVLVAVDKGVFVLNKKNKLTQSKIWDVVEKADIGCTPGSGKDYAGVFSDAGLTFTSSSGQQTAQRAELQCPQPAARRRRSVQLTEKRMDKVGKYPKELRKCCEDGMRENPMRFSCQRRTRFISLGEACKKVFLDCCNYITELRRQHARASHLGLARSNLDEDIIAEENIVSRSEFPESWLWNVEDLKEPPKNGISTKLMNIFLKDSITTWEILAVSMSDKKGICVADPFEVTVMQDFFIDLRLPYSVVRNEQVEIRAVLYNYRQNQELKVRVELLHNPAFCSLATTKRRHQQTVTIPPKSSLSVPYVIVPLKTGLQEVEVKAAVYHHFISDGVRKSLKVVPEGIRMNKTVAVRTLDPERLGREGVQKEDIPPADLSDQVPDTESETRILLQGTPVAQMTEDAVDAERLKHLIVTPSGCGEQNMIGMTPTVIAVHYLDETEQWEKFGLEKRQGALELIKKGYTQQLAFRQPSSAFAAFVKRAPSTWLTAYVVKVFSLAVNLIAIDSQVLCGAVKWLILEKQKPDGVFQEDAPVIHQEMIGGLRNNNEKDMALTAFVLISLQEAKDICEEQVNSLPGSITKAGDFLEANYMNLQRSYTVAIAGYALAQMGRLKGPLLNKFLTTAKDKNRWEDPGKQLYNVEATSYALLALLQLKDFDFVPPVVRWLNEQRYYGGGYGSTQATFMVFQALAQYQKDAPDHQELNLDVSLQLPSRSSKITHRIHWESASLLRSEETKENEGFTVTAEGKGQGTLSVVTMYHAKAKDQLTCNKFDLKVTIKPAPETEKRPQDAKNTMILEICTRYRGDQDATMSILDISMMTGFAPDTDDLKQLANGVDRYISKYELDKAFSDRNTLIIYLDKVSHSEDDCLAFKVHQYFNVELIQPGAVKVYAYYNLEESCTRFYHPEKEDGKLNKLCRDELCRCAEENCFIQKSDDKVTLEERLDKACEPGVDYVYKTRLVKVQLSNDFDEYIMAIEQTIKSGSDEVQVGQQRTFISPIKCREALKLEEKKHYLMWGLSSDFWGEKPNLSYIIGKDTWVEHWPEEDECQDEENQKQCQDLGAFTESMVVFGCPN

Human C3 [2] = molecular target: T1, Human C3; test: cell-based or functional assay; remark: listed apart in the source
Human C3 [3] = molecular target: T1, Human C3; test: SPR, C3 immobilised
Description: Surface plasmon resonance (SPR) was used to characterize peptides with respect to their binding affinity (Kd) for C3. Human C3 (Complement tech cat #A1 13c) was immobilised on individual flow cells of CM5 sensor chips (GE Healthcare) using standard amine coupling to a density of approximately 3000 resonance units (RU) in a buffer consisting of 10 mM phosphate pH 7.4, 150 mM NaCl, 0.05% Tween20.
For interaction experiments a multi-cycle experiment approach was used and performed using either a Biacore™ T200 or Biacore™ X100 instrument (GE Healthcare) at 25° C. Peptides were injected in increasing concentration series (5-8 different concentrations) for 60-120 s at a flow rate of 30 μL/min in a buffer consisting of 10 mM Tris buffer at pH 7.4, with 150 mM NaCl and 0.05% Tween20. This was followed by a dissociation period for up to 10 min. The C3 surface was regenerated between runs by a 45 s injection of 3 M MgCl₂.
Sensorgrams were double-referenced (reference surface, blanks) prior to analysis of the kinetic profiles by globally fitting data to a 1:1 Langmuir binding model to obtain association and dissociation rates for calculation of the equilibrium dissociation constant Kd. Each peptide was tested at in at least 2 independent experiments.

B1: Compound 80 (peptide)
peptide: Ac-EFCI[Trp(1-Me)]QDWGEHRC[Sar]EA-NH2
modifications: disulfide 3-13
SMILES: CC[C@H](C)[C@@H]1NC(=O)[C@@H](NC(=O)[C@H](Cc2ccccc2)NC(=O)[C@H](CCC(=O)O)NC(C)=O)CSSC[C@@H](C(=O)N(C)CC(=O)N[C@@H](CCC(=O)O)C(=O)N[C@@H](C)C(N)=O)NC(=O)[C@H](CCCNC(=N)N)NC(=O)[C@H](Cc2c[nH]cn2)NC(=O)[C@H](CCC(=O)O)NC(=O)CNC(=O)[C@H](Cc2c[nH]c3ccccc23)NC(=O)[C@H](CC(=O)O)NC(=O)[C@H](CCC(N)=O)NC(=O)[C@H](Cc2cn(C)c3ccccc23)NC1=O
**Q.** How did the IC50[nM], inhibition of hemolysis (Human C3 [1]) turn out when B1 was run?
**A.** < 100 nM

B2: Compound 77 (peptide)
peptide: Ac-SEFCI[Trp(1-Me)]QDW[Sar]EHRCTEA-NH2
modifications: disulfide 4-14
SMILES: CC[C@H](C)[C@@H]1NC(=O)[C@@H](NC(=O)[C@H](Cc2ccccc2)NC(=O)[C@H](CCC(=O)O)NC(=O)[C@H](CO)NC(C)=O)CSSC[C@@H](C(=O)N[C@H](C(=O)N[C@@H](CCC(=O)O)C(=O)N[C@@H](C)C(N)=O)[C@@H](C)O)NC(=O)[C@H](CCCNC(=N)N)NC(=O)[C@H](Cc2c[nH]cn2)NC(=O)[C@H](CCC(=O)O)NC(=O)CN(C)C(=O)[C@H](Cc2c[nH]c3ccccc23)NC(=O)[C@H](CC(=O)O)NC(=O)[C@H](CCC(N)=O)NC(=O)[C@H](Cc2cn(C)c3ccccc23)NC1=O
**Q.** How did the IC50[nM], inhibition of hemolysis (Human C3 [1]) turn out when B2 was run?
**A.** < 100 nM

B3: Compound 83 (peptide)
peptide: Ac-SEFCI[Trp(1-Me)]QEWGEHRC[Sar]EA-NH2
modifications: disulfide 4-14
SMILES: CC[C@H](C)[C@@H]1NC(=O)[C@@H](NC(=O)[C@H](Cc2ccccc2)NC(=O)[C@H](CCC(=O)O)NC(=O)[C@H](CO)NC(C)=O)CSSC[C@@H](C(=O)N(C)CC(=O)N[C@@H](CCC(=O)O)C(=O)N[C@@H](C)C(N)=O)NC(=O)[C@H](CCCNC(=N)N)NC(=O)[C@H](Cc2c[nH]cn2)NC(=O)[C@H](CCC(=O)O)NC(=O)CNC(=O)[C@H](Cc2c[nH]c3ccccc23)NC(=O)[C@H](CCC(=O)O)NC(=O)[C@H](CCC(N)=O)NC(=O)[C@H](Cc2cn(C)c3ccccc23)NC1=O
**Q.** How did the IC50[nM], inhibition of hemolysis (Human C3 [1]) turn out when B3 was run?
**A.** < 100 nM

B4: Compound 102 (peptide)
peptide: Ac-FCI[Trp(1-Me)]QDWGEHRCTGAESK([AEEA-AEEA-γGlu-C16 diacid])-NH2
modifications: disulfide 2-12
SMILES: CC[C@H](C)[C@@H]1NC(=O)[C@@H](NC(=O)[C@H](Cc2ccccc2)NC(C)=O)CSSC[C@@H](C(=O)N[C@H](C(=O)NCC(=O)N[C@@H](C)C(=O)N[C@@H](CCC(=O)O)C(=O)N[C@@H](CO)C(=O)N[C@@H](CCCCNC(=O)COCCOCCNC(=O)COCCOCCNC(=O)CC[C@H](NC(=O)CCCCCCCCCCCCCCC(=O)O)C(=O)O)C(N)=O)[C@@H](C)O)NC(=O)[C@H](CCCNC(=N)N)NC(=O)[C@H](Cc2c[nH]cn2)NC(=O)[C@H](CCC(=O)O)NC(=O)CNC(=O)[C@H](Cc2c[nH]c3ccccc23)NC(=O)[C@H](CC(=O)O)NC(=O)[C@H](CCC(N)=O)NC(=O)[C@H](Cc2cn(C)c3ccccc23)NC1=O
**Q.** Which results are given for B4?
**A.** IC50[nM], inhibition of hemolysis (Human C3 [2]): < 100 nM; Kd (Human C3 [3]): 1.7 nM

B5: Compound 104 (peptide)
peptide: Ac-EGSAYCI[Trp(1-Me)]QDWGEHRC[Sar]EGK([AEEA-AEEA-γGlu-C16 diacid])-NH2
modifications: disulfide 6-16
SMILES: CC[C@H](C)[C@@H]1NC(=O)[C@@H](NC(=O)[C@H](Cc2ccc(O)cc2)NC(=O)[C@H](C)NC(=O)[C@H](CO)NC(=O)CNC(=O)[C@H](CCC(=O)O)NC(C)=O)CSSC[C@@H](C(=O)N(C)CC(=O)N[C@@H](CCC(=O)O)C(=O)NCC(=O)N[C@@H](CCCCNC(=O)COCCOCCNC(=O)COCCOCCNC(=O)CC[C@H](NC(=O)CCCCCCCCCCCCCCC(=O)O)C(=O)O)C(N)=O)NC(=O)[C@H](CCCNC(=N)N)NC(=O)[C@H](Cc2c[nH]cn2)NC(=O)[C@H](CCC(=O)O)NC(=O)CNC(=O)[C@H](Cc2c[nH]c3ccccc23)NC(=O)[C@H](CC(=O)O)NC(=O)[C@H](CCC(N)=O)NC(=O)[C@H](Cc2cn(C)c3ccccc23)NC1=O
**Q.** For B5, which “IC50[nM], inhibition of hemolysis” value (Human C3 [2]) is on record?
**A.** < 100 nM

**Q.** What about the Kd (Human C3 [3]) of the same binder?
**A.** 34 nM

B6: Compound 79 (peptide)
peptide: Ac-SEFCI[Trp(1-Me)]QDW[Sar]EHRC[Sar]E-NH2
modifications: disulfide 4-14
SMILES: CC[C@H](C)[C@@H]1NC(=O)[C@@H](NC(=O)[C@H](Cc2ccccc2)NC(=O)[C@H](CCC(=O)O)NC(=O)[C@H](CO)NC(C)=O)CSSC[C@@H](C(=O)N(C)CC(=O)N[C@@H](CCC(=O)O)C(N)=O)NC(=O)[C@H](CCCNC(=N)N)NC(=O)[C@H](Cc2c[nH]cn2)NC(=O)[C@H](CCC(=O)O)NC(=O)CN(C)C(=O)[C@H](Cc2c[nH]c3ccccc23)NC(=O)[C@H](CC(=O)O)NC(=O)[C@H](CCC(N)=O)NC(=O)[C@H](Cc2cn(C)c3ccccc23)NC1=O
**Q.** How did the IC50[nM], inhibition of hemolysis (Human C3 [1]) turn out when B6 was run?
**A.** < 100 nM

B7: Compound 78 (peptide)
peptide: Ac-SEFCI[Trp(1-Me)]QDWGEHRC[Sar]E-NH2
modifications: disulfide 4-14
SMILES: CC[C@H](C)[C@@H]1NC(=O)[C@@H](NC(=O)[C@H](Cc2ccccc2)NC(=O)[C@H](CCC(=O)O)NC(=O)[C@H](CO)NC(C)=O)CSSC[C@@H](C(=O)N(C)CC(=O)N[C@@H](CCC(=O)O)C(N)=O)NC(=O)[C@H](CCCNC(=N)N)NC(=O)[C@H](Cc2c[nH]cn2)NC(=O)[C@H](CCC(=O)O)NC(=O)CNC(=O)[C@H](Cc2c[nH]c3ccccc23)NC(=O)[C@H](CC(=O)O)NC(=O)[C@H](CCC(N)=O)NC(=O)[C@H](Cc2cn(C)c3ccccc23)NC1=O
**Q.** How did the IC50[nM], inhibition of hemolysis (Human C3 [1]) turn out when B7 was run?
**A.** < 100 nM

B8: Compound 87 (peptide)
peptide: Ac-GEFCI[Trp(1-Me)]QDWGEHRC[Sar]EA-NH2
modifications: disulfide 4-14
SMILES: CC[C@H](C)[C@@H]1NC(=O)[C@@H](NC(=O)[C@H](Cc2ccccc2)NC(=O)[C@H](CCC(=O)O)NC(=O)CNC(C)=O)CSSC[C@@H](C(=O)N(C)CC(=O)N[C@@H](CCC(=O)O)C(=O)N[C@@H](C)C(N)=O)NC(=O)[C@H](CCCNC(=N)N)NC(=O)[C@H](Cc2c[nH]cn2)NC(=O)[C@H](CCC(=O)O)NC(=O)CNC(=O)[C@H](Cc2c[nH]c3ccccc23)NC(=O)[C@H](CC(=O)O)NC(=O)[C@H](CCC(N)=O)NC(=O)[C@H](Cc2cn(C)c3ccccc23)NC1=O
**Q.** B8 was tested. Which IC50[nM], inhibition of hemolysis (Human C3 [1]) did it give?
**A.** < 100 nM

B9: Compound 74 (peptide)
peptide: Ac-SEFCI[Trp(1-Me)]QDWGEHRC[Sar]GAES-NH2
modifications: disulfide 4-14
SMILES: CC[C@H](C)[C@@H]1NC(=O)[C@@H](NC(=O)[C@H](Cc2ccccc2)NC(=O)[C@H](CCC(=O)O)NC(=O)[C@H](CO)NC(C)=O)CSSC[C@@H](C(=O)N(C)CC(=O)NCC(=O)N[C@@H](C)C(=O)N[C@@H](CCC(=O)O)C(=O)N[C@@H](CO)C(N)=O)NC(=O)[C@H](CCCNC(=N)N)NC(=O)[C@H](Cc2c[nH]cn2)NC(=O)[C@H](CCC(=O)O)NC(=O)CNC(=O)[C@H](Cc2c[nH]c3ccccc23)NC(=O)[C@H](CC(=O)O)NC(=O)[C@H](CCC(N)=O)NC(=O)[C@H](Cc2cn(C)c3ccccc23)NC1=O
**Q.** With B9 as the binder, how does the IC50[nM], inhibition of hemolysis (Human C3 [1]) read?
**A.** < 100 nM

B10: Compound 84 (peptide)
peptide: Ac-SEFCI[Trp(1-Me)]QDWGEHRCSEA-NH2
modifications: disulfide 4-14
SMILES: CC[C@H](C)[C@@H]1NC(=O)[C@@H](NC(=O)[C@H](Cc2ccccc2)NC(=O)[C@H](CCC(=O)O)NC(=O)[C@H](CO)NC(C)=O)CSSC[C@@H](C(=O)N[C@@H](CO)C(=O)N[C@@H](CCC(=O)O)C(=O)N[C@@H](C)C(N)=O)NC(=O)[C@H](CCCNC(=N)N)NC(=O)[C@H](Cc2c[nH]cn2)NC(=O)[C@H](CCC(=O)O)NC(=O)CNC(=O)[C@H](Cc2c[nH]c3ccccc23)NC(=O)[C@H](CC(=O)O)NC(=O)[C@H](CCC(N)=O)NC(=O)[C@H](Cc2cn(C)c3ccccc23)NC1=O
**Q.** How did the IC50[nM], inhibition of hemolysis (Human C3 [1]) turn out when B10 was run?
**A.** < 100 nM

B11: Compound 76 (peptide)
peptide: Ac-SEFCI[Trp(1-Me)]QDW[Sar]EHRC[Sar]EA-NH2
modifications: disulfide 4-14
SMILES: CC[C@H](C)[C@@H]1NC(=O)[C@@H](NC(=O)[C@H](Cc2ccccc2)NC(=O)[C@H](CCC(=O)O)NC(=O)[C@H](CO)NC(C)=O)CSSC[C@@H](C(=O)N(C)CC(=O)N[C@@H](CCC(=O)O)C(=O)N[C@@H](C)C(N)=O)NC(=O)[C@H](CCCNC(=N)N)NC(=O)[C@H](Cc2c[nH]cn2)NC(=O)[C@H](CCC(=O)O)NC(=O)CN(C)C(=O)[C@H](Cc2c[nH]c3ccccc23)NC(=O)[C@H](CC(=O)O)NC(=O)[C@H](CCC(N)=O)NC(=O)[C@H](Cc2cn(C)c3ccccc23)NC1=O
**Q.** Which IC50[nM], inhibition of hemolysis (Human C3 [1]) does the source give for B11 here?
**A.** < 100 nM
